Assay results reported in paper PMC12341506.

Biological target: 3nv.2 SOSIP Env trimer (HIV-1 (clade C strain 426c))
Assay: cryo-EM structure; single-particle cryo-EM of unliganded 3nv.2 SOSIP Env, from a sample incubated with polyclonal Fabs and purified by SEC in TBS; 2D class averages and 3D map, C1 or C3 symmetry

## 3nv.2 SOSIP Env trimer
  stoichiometry N: 3
